Assay results as given in patent US20220324996A1 (published 2022).

Legend:
human SIRP-α v1 = biological target: T1, human SIRP-α v1 (human, UniProt P78324 31-149); test: SPR
T1 construct: Soluble SIRP analyte in SPR; also called hSIRPa v1; Human V1
Procedure: The interactions of anti-SIRPα antibodies with SIRPα from various species (human v1, human v2, cynomolgus, mouse 129, BL6, BALBc, NOD), SIRPβ and SIRPγ were analyzed using two methods, direct immobilization of the antibodies (via GLC chip) or capture via biotinylated Protein A (via NLC chip), according to the following protocols. All experiments were performed at 25° C. using a SPR-based ProteOn XPR36 biosensor (BioRad. Inc, Hercules, Calif.) equipped with GLC or NLC sensor chips. […] Purification was carried out by standard Protein A affinity column chromatography and eluted antibodies were stored in PBS buffer.

human SIRP-γ = biological target: T2, human SIRP-γ (human, UniProt Q9P1W8 29-147); test: SPR
T2 construct: Soluble SIRP analyte in SPR; also called hSIRPg; SIRPg
T2 sequence (Q9P1W8 29-147 limits assumed): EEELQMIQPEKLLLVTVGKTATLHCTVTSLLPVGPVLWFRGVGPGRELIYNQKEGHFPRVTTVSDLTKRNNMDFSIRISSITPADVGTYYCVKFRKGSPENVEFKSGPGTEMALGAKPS

T1 sequence (P78324 31-149 limits assumed): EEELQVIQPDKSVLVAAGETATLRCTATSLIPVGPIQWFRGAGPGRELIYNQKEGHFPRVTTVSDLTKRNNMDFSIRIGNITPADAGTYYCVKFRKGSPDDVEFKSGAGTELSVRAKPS

B1: Hum1/AB21_HC_Mutall (antibody, V domains shown)
VH: EVQLVESGGGVVQPGGSLRLSCAASGFTFSSNAMSWVRQAPGKGLEWVAGISAGGSDTYYPASVKGRFTISRDNSKNTLYLQMNSLRAEDTAVYYCARETWNHLFDYWGQGTLVTVSS
VL: SYELTQPPSVSVSPGQTARITCSGGSYSSYYYAWYQQKPGQAPVTLIYSDDKRPSNIPERFSGSSSGTTVTLTISGVQAEDEADYYCGGYDQSSYTNPFGGGTKLTVL
notes: also called Hum1/AB21mutall
- Kd (human SIRP-α v1): ≤ 0.01 nM
- Kd (human SIRP-γ): > 1 pM
